Results: article PMC12718013

Target: purified human vitronectin (Invitrogen) (UniProt P04004)
Experiment: ELISA
Details: 20 nM Vn, read off a plot

Sequence of UniProt P04004 (P04004 whole entry, looked up): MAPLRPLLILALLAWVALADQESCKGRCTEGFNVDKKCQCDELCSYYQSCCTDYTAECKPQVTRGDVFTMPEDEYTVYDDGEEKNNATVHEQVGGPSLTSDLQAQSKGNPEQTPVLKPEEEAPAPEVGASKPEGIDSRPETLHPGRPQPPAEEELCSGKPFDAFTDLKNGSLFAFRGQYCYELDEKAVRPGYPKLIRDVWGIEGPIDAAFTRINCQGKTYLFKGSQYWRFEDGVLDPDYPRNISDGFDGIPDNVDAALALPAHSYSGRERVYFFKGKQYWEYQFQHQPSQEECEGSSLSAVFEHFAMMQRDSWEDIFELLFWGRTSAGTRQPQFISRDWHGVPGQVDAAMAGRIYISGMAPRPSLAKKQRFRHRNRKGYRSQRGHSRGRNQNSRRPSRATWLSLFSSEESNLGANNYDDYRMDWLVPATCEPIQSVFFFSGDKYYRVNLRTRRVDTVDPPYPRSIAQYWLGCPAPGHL

For “synthetic peptide of loop 2 of P5 from NTHi KR271 I5A”, the response (absorbance at 450 nm) (parent: est. 0.12) was 0.1.
Work on “synthetic peptide of loop 2 of P5 from NTHi 3655 L5A; V8A; S12A” yielded a response (absorbance at 450 nm) (parent: est. 0.28) of 0.13.
“synthetic peptide of loop 2 of P5 from NTHi KR317 L5A; V8A; Q10A; T11A; R12A” was tested, and the response (absorbance at 450 nm) (parent: est. 0.23) was 0.095.
With “synthetic peptide of loop 2 of P5 from NTHi P652 V3A; F5A; L7A” the response (absorbance at 450 nm) (parent: est. 0.97) was 0.45.
